From the nanobody polyreactivity screen of Harvey et al. (2022)

Test: yeast display, Sf9 membrane polyspecificity reagent, FACS + sequencing; frameworks hold sequencing errors
Summary of the method: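 A nanobody's polyreactivity label depends on the gate it was sorted from. Yeast display cells were stained with 10% biotinylated, detergent-solubilized Sf9 membrane reagent for 1 hour at 4 °C, enriched on streptavidin microbeads and sorted by FACS. The low and high (top ~1%) gates were set on anti-HA fluorescence for expression and streptavidin fluorescence for reagent binding.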

Sequence	polyreactivity (PSR sort gate)
QVQLVESGGGLVQAGGSLRLSCAASGRTFSAYAMGWYRQAPGKERELVARITSVDSTNYADSVKGRFTISRDNAKNTVYLQMNSLKPEDTAVYYCNATFGYPFVEYDDYWGQGTQVTVSS	low polyreactivity
QVQLVESGGGLVQAGGSLRLSCAASGRTFSDYVMGWYRQAPGKERELVAAINIGGGSTYYADSVKGRFTISRDNAKNTVYLQMNSLKPEDTAVYYCAAESAGSYLDYYWAYGYWGQGTQVTVSS	low polyreactivity
QVQLVESGGGLVQAGGSLRLSCAASGRTFSENAMGWYRQAPGKERELVAAISGSGGRTYYADSVKGRFTISRDNAKNTVYLQMNRLKPEDTAVYYCAKVTRYGSTYDYWGQGTQVTVSS	high polyreactivity
QVQLVESGGGLVQAGGSLRLSCAASGRTFSFYAMVWYRQAPGKERELVAGIDWDDGSTSYADSVKGRFTISRDNAKNTVYLQMNSLKQEDTAVCYCAADIGYDVYNDYDYWGQGTQVTVSS	low polyreactivity
QVQLVESGGGLVQAGGSLRLSCAASGRTFSFYDMGWYRQAPGKERELVAAINSGSSTYYADSVKGRFTISRDNANNTVYLQMNSLKPEDTEVYYCAAEPYFWWQNEYWGQGTQVTVSS	high polyreactivity
QVQLVESGGGLVQAGGSLRLSCAASGRTFSGNTMGWYRQAPGKERELVAAISSGGSRTYYADSVKGRFTISRDNAKNTVYLLMNSLKPEDTAVYYCATVSTYYHYRRYDYWGQGTQVTVSS	high polyreactivity
QVQLVESGGGLVQAGGSLRLSCAASGRTFSGYAMGWYRQAPGKEREFVAAITSSGGSTYYADSVKGRFTISRDNAKNTVYLQMNSLKPEDTAVYYCAARIRHFSVGYYYWGQGTQVTVSS	high polyreactivity
QVQLVESGGGLVQAGGSLRLSCAASGRTFSGYAMGWYRQAPGKERELVAAINYSDGSTYYADSVKGRFTISRDNAKNTVYLQMNSLKPEDTAVYYCNKVYRYVRYAYDYWGQGTQVTVSS	high polyreactivity
QVQLVESGGGLVQAGGSLRLSCAASGRTFSGYAMGWYRQAPGKERELVAGINWSGDSTYYADSVKGRFTISRDNAKNTVYLQMNSLKPEDTAVYYCAASRSGTYDWGQGTQVTVSS	high polyreactivity
QVQLVESGGGLVQAGGSLRLSCAASGRTFSHYAMGWSRQAPGKERELVAASNTRTGTTYYADSVKGRFTISRDNAKNTVNLQMNSLKPEDTAVYYCNAVPYYSYQGWILVGDYDYWGQGTQVTVSS	low polyreactivity
QVQLVESGGGLVQAGGSLRLSCAASGRTFSINAMGWYRQAPGKERELVASISSRGTRTNYADSVKGRFTISRDNAKNTVYLQMNSLKPEDTAVYYCAADRYYPYYSAWREYEYWGQGTQVTVSS	high polyreactivity
QVQLVESGGGLVQAGGSLRLSCAASGRTFSIYAMGWYRQAPGKERELVASITGRGTRTYYADSVKGRFTISRDNAKNTVYLQMNSLKPEDTAVYYCNARGKVQSSYDDDYWGQGTQVTVSS	high polyreactivity
QVQLVESGGGLVQAGGSLRLSCAASGRTFSKNAMGWYRQAPGKERELVADISRRGGRTYYADSVNGRFTISRDNAKNTVYLQMNSLKPEDTAVYYCAARTYRQPYYILDYYWGQGTQVTVSS	high polyreactivity
QVQLVESGGGLVQAGGSLRLSCAASGRTFSKYAMGWYRQAPGKERELVAAITRSGSSTYYADSVKGRFTISRDNAKNTVYLQMNSLKPEDTAVYYCAADRYVRSSGSASDYGYWGQGTQVTVSS	low polyreactivity
QVQLVESGGGLVQAGGSLRLSCAASGRTFSLYAMGWYRQAPGKERELVARIRSSTRTTYADSVKGRFTISRDNAKNTVYLQMNSLKPEDTAVYYCAADSGYRYYTKSVGYDYWGQGTQVTVSS	high polyreactivity
QVQLVESGGGLVQAGGSLRLSCAASGRTFSPYAMGWYRQAPVKERELVAAITSGGRTNYADSVKGRFTISRDNAKNTVYLQMNSLKPEDTAVYYCAARSGRYRWTRFDYWGQGTQVTVSS	low polyreactivity
QVQLVESGGGLVQAGGSLRLSCAASGRTFSPYMGWYRQAPGKERELVAAISKSGGRTYYADSVKGRFTISRDNAKNTVYLQMNSLKPEDTAVYYCANTGNNYYYALYGYWGQGTQVTVSS	low polyreactivity
QVQLVESGGGLVQAGGSLRLSCAASGRTFSQYAMGWYRPAPGKERELVAAITRSGSRTYYADSVKGRFTISRDNAKNTVYLQMNSLKPEDTAVYYCAADGHAGYPIDEYYYWGQGTQVTVSS	high polyreactivity
QVQLVESGGGLVQAGGSLRLSCAASGRTFSQYAMGWYRQAPGKERELVAAITKNGGRTYYADSVKGRFTISRDNAKNTVYLQMNSLKPEDTAVYYCNARGGRYAGKLDYWGQGTQVTVSS	high polyreactivity
QVQLVESGGGLVQAGGSLRLSCAASGRTFSRNAMGWYRQAPGKERELVAAITSSGGSTYYADSVKGRFTISRDNAKNTVYLQMNSLKPEDTAVYYCNADATYRRGGGDYWGQGTQVTVSS	high polyreactivity
QVQLVESGGGLVQAGGSLRLSCAASGRTFSRNAMGWYRQAPGKERELVATISSSGVRTYYADSVKGRFTISRDNAKNTVYLQMNSLKPEDTAVYYCAAAWRYYSAASGYDYWGQGTQVTVSS	low polyreactivity
QVQLVESGGGLVQAGGSLRLSCAASGRTFSRYAIGWYRQAPGKERELVASITSRGGSTYYADSVKGRFTISRDNAKNTVYLQMNSLKPEDTAVYYCNVKPTYSPRYWEDYWGQGTQVTVSS	high polyreactivity

Sequence	polyreactivity (PSR sort gate)
QVQLVESGGGLVQAGGSLRLSCAASGRTFSRYAMGWYRQAPGKEREFVAAITWSSGGTYYADSVKGRFTISRDNAKNTVYLQMNSLKPEDTAVYYCNYLRSRYYQDYNYWGQGTQVTVSS	high polyreactivity
QVQLVESGGGLVQAGGSLRLSCAASGRTFSRYAMGWYRQAPGKERELVAAISRSGGITYYADSVKGRFTISRDNAKNTVYLQMNSLKPEDTAVYYCAAYVRGWGGDDYWGQGTQVTVSS	high polyreactivity
QVQLVESGGGLVQAGGSLRLSCAASGRTFSSYAMGWYRQAPGKERELVAAIRVSGGITYYADSVKGRFTISRDNAKNTVYLQMNSLKPEDTAVYYCNAGVDFIGGSYLKYDYWGQGTKVTVSS	low polyreactivity
QVQLVESGGGLVQAGGSLRLSCAASGRTFSTNAMGWYSQAPGKERELVAAISARGGSTYYADSVKGRFTISRDNAKNTVYLLLTSLKPEDTAVDYCARRPGRYSYAFDYWGQGTQVTVSS	high polyreactivity
QVQLVESGGGLVQAGGSLRLSCAASGRTFSTYAMGWCRQAPGKERELVAAISRRGGSTYYADSVKGRFTISRDNAKYTVYLQMNSLKPEDTAVYYGAADSYDSDVNEYDYWGQGTQVTVSS	high polyreactivity
QVQLVESGGGLVQAGGSLRLSCAASGRTFSTYAMGWYRQAPGKERELVARITSSGGSTYYAHSVKGRFTISRDIAKNSVYLQMNCLKPEDTAVYYCAAYAHYAQRYYYWGQGTQVTVSS	high polyreactivity
QVQLVESGGGLVQAGGSLRLSCAASGRTFSTYTMGWYRPAPGNERELVAAINWSGTSTYYADSVKGRFTISRDTAKNTVYLQMNSLKPEDTAFYYCNAGKWAYRWGYELNYWGQGTQVTVSS	high polyreactivity
QVQLVESGGGLVQAGGSLRLSCAASGRTFSVNAMGWYRQAPGKERELVAAIAWDGGSTYYADSVKGRFTISRDNAKNTVYLQMNSLKPEDTAVYYCNKDLYYAYDYWGQGTQVTVSS	low polyreactivity
QVQLVESGGGLVQAGGSLRLSCAASGRTFSVNAMGWYRQAPGKERELVAAISWDGGSTYYADSVKGRFTISRDNAKNTVYLQMNSLKPEDTAVYYCNQDLYYAYDYWGQGTQVTVSS	low polyreactivity
QVQLVESGGGLVQAGGSLRLSCAASGRTFSVNAMGWYRQAPGKERELVAAITSGGSTYYADSVKGRFTISRDNAKNTVYLQMNSLKPEDTAVYYCNADLEPYDYWGQGTQVTVSS	low polyreactivity
QVQLVESGGGLVQAGGSLRLSCAASGRTFSVNAMGWYRQAPGKERELVAAITSGGSTYYADSVKGRFTISRDNAKNTVYLQMNSLKPEDTAVYYCNAVGRLRRSRLRMDYWGQGTQVTVSS	high polyreactivity
QVQLVESGGGLVQAGGSLRLSCAASGRTFSWYAMGWYRQAPGKEREFVAAITSGGSTYYADSVKGRFTISRDNAMNTVYLQMNSLKPEDTAVYYCAAYGYWGQGTQVTVSS	high polyreactivity
QVQLVESGGGLVQAGGSLRLSCAASGRTFSYNAMGWYRQAPGKERELVAAITGRGGSTYYADSVKGRFTISRDNAKHTVYLQMNSLKPEDTAVYYCNAPPGTFQWQGHSDYWGQGTQVTVSS	low polyreactivity
QVQLVESGGGLVQAGGSLRLSCAASGRTFSYNAMGWYRQAPGKERELVAAITSSGGGTSYADSVKGRFTISRDNAKNTVYLQMNSLKPEDTAVYYCNRVLPHPDGYGVGARGYWGQGTQVSVSS	high polyreactivity
QVQLVESGGGLVQAGGSLRLSCAASGRTFSYNAMGWYRQAPGTERELVAAISGGGSTDYADSVKGRFTISRDNAKNTVYLQMNSLKPEDTAVYYCAAGWYVYTFFEFYVFDGDYWGQGTQVTVSS	low polyreactivity
QVQLVESGGGLVQAGGSLRLSCAASGRTFSYSAMGWYRQAPGKERELVAAISSGGSTNYADSVKGRFTISRDNAKNTVYLQMNSLKPEDTAVYYCATSSIWGSGRVRWVTYYYWGQGTQVTVSS	low polyreactivity
QVQLVESGGGLVQAGGSLRLSCAASGRTFSYSAMGWYRQAPGKERELVAAITGSGGRTYYADSVKGRFTISRDNAKNTVYLQMNSLKPEDTAVYYCAARYLYEGQLRPIRYYHYGYWGQGTQVTVSS	high polyreactivity
QVQLVESGGGLVQAGGSLRLSCAASGRTFSYYAMGCYRQAPGKERELVASISSGGSTKYADSVKGRFTISRDNAKNTVYLQMNSLKPEDTAVYYCAVTYWYGRVLYGYWGQGTQVTVSS	high polyreactivity
QVQLVESGGGLVQAGGSLRLSCAASGRTFSYYAMGWYRQAPGKERELVAAIDDNGGTTYADSVKGRFTISRDNATNTVYLQINSLKPEDTAVYYCAKRVSYFWALRRGYWGQGTKVTVSS	high polyreactivity
QVQLVESGGGLVQAGGSLRLSCAASGRTFSYYAMGWYRQAPGKERELVAAIRRSSGTTYYADSVKGRFTISSDNAKNTVYLQMNSLKPEDTAVYYCNARSRRASIKRDYWGQGTQVTLSS	high polyreactivity
QVQLVESGGGLVQAGGSLRLSCAASGRTFSYYAMGWYRQAPGKERELVAAISSGDSTYYADSVKGRFTFSRDNAMNTVYLQMNSLKPEDTAVYYCASYPSLYYTKYDYWGQGTQVTVSS	high polyreactivity
